Reference: the supplement of paper PMC5998384

How the values were obtained:
[1] = system: HeLa Kyoto; experiment: solubility in G1/S (NP-40 vs SDS abundance) (log2 ratio); higher = more soluble; settings: cell cycle stage: G1/S
[2] = system: HeLa Kyoto; experiment: melting temperature (median over replicates), in situ; higher = more thermally stable
[3] = system: HeLa Kyoto; experiment: solubility change mitosis vs G1/S (difference of NP-40 vs SDS log2 ratios) (log2 ratio difference); higher = more soluble in mitosis
[4] = system: HeLa Kyoto; experiment: thermal stability score vs G1/S (z-score of summed log2 fold changes over temperatures); higher = more thermally stable than in G1/S
[5] = cell cycle stage: early G1 (4.5 h after nocodazole release)
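Throughout, for melting temperature (median over replicates), in situ: HeLa Kyoto cells synchronized by double thymidine or nocodazole block, proteins quantified by TMT10plex mass spectrometry, three independent biological replicates.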
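Throughout, for solubility change mitosis vs G1/S (difference of NP-40 vs SDS log2 ratios): synchronized HeLa Kyoto cells (double thymidine block for G1/S, nocodazole release for mitosis), protein amounts in NP-40 versus SDS lysates quantified by mass spectrometry, three biological replicates.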
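Throughout, for solubility in G1/S (NP-40 vs SDS abundance): HeLa Kyoto cells arrested at G1/S by double thymidine block, proteins quantified by TMT10plex mass spectrometry in mild NP-40 versus SDS extracts, three biological replicates.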
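Throughout, for thermal stability score vs G1/S (z-score of summed log2 fold changes over temperatures): synchronized HeLa Kyoto cells, proteins quantified by TMT10plex mass spectrometry, three biological replicates, mitosis taken 0.5 h after nocodazole release, G1/S directly after double thymidine block.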

MAP7D1, sequence (chain, as listed by the source): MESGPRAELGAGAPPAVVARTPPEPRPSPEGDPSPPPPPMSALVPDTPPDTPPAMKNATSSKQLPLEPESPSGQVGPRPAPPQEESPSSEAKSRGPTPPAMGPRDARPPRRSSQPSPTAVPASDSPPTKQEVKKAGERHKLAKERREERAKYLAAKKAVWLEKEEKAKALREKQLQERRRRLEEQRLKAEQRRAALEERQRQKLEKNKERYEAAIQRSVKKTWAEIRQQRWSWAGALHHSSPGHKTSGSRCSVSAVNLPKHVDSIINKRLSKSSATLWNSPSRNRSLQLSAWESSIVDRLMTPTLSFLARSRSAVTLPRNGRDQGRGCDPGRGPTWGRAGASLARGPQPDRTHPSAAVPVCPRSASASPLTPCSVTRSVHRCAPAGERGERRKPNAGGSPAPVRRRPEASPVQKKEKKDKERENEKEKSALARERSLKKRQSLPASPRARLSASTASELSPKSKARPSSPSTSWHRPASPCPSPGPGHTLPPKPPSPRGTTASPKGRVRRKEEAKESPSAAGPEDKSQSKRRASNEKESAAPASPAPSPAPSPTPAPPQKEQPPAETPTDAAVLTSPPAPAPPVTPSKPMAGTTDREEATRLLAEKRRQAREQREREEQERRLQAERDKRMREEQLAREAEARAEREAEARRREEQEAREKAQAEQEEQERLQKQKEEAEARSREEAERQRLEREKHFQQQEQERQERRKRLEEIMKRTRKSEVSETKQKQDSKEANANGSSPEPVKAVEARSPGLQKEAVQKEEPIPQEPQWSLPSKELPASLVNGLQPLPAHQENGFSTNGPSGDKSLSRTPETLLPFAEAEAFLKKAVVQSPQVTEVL
CBX1, sequence (chain, as listed by the source): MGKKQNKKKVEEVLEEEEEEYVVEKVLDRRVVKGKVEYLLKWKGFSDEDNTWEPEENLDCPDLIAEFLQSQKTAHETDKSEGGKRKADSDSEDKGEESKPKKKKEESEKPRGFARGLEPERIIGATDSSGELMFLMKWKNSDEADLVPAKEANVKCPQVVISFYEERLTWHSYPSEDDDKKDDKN

Row | Substance | solubility in G1/S (log2) [1] | melting temperature ([2]; cell cycle stage: G1/S) [°C] | melting temperature ([2]; cell cycle stage: mitosis) [°C] | solubility change mitosis (log2) [3] | thermal stability score [4, 5] | thermal stability score ([4]; cell cycle stage: mitosis)
1 | MSAPAGSSHPAASARIPPKFGGAAVSGAAAPAGPGAGPAPHQQNGPAQNQMQVPSGYGLHHQNYIAPSGHYSQGPGKMTSLPLDTQCGDYYSALYTVPTQNVTPNTVNQQPGAQQLYSRGPPAPHIVGSTLGSFQGAASSASHLHTSASQPYSSFVNHYNSPAMYSASSSVASQGFPSTCGHYAMSTVSNAAYPSVSYPSLPAGDTYGQMFTSQNAPTVRPVKDNSFSGQNTAISHPSPLPPLPSQQHHQQQSLSGYSTLTWSSPGLPSTQDNLIRNHTGSLAVANNNPTITVADSLSCPVMQNVQPPKSSPVVSTVLSGSSGSSSTRTPPTANHPVEPVTSVTQPSELLQQKGVQYGEYVNNQASSAPTPLSSTSDDEEEEEEDEEAGVDSSSTTSSASPMPNSYDALEGGSYPDMLSSSASSPAPDPAPEPDPASAPAPASAPAPVVPQPSKMAKPFGYGYPTLQPGYQNATAPLISGVQPSNPVYSGFQQYPQQYPGVNQLSSSIGGLSLQSSPQPESLRPVNLTQERNILPMTPVWAPVPNLNADLKKLNCSPDSFRCTLTNIPQTQALLNKAKLPLGLLLHPFRDLTQLPVITSNTIVRCRSCRTYINPFVSFIDQRRWKCNLCYRVNDVPEEFMYNPLTRSYGEPHKRPEVQNSTVEFIASSDYMLRPPQPAVYLFVLDVSHNAVEAGYLTILCQSLLENLDKLPGDSRTRIGFMTFDSTIHFYNLQEGLSQPQMLIVSDIDDVFLPTPDSLLVNLYESKELIKDLLNALPNMFTNTRETHSALGPALQAAFKLMSPTGGRVSVFQTQLPSLGAGLLQSREDPNQRSSTKVVQHLGPATDFYKKLALDCSGQQTAVDLFLLSSQYSDLASLACMSKYSAGCIYYYPSFHYTHNPSQAEKLQKDLKRYLTRKIGFEAVMRIRCTKGLSMHTFHGNFFVRSTDLLSLANINPDAGFAVQLSIEESLTDTSLVCFQTALLYTSSKGERRIRVHTLCLPVVSSLADVYAGVDVQAAICLLANMAVDRSVSSSLSDARDALVNAVVDSLSAYGSTVSNLQHSALMAPSSLKLFPLYVLALLKQKAFRTGTSTRLDDRVYAMCQIKSQPLVHLMKMIHPNLYRIDRLTDEGAVHVNDRIVPQPPLQKLSAEKLTREGAFLMDCGSVFYIWVGKGCDNNFIEDVLGYTNFASIPQKMTHLPELDTLSSERARSFITWLRDSRPLSPILHIVKDESPAKAEFFQHLIEDRTEAAFSYYEFLLHVQQQICK [SEC24B] | -0.132 | 48.8 | 49.5 | -0.119 | 1.03 | 1.85
2 | MAP7D1 | 0.337 | 52.8 | 51.2 | 0.536 | -1.09 | -4.66
3 | MAGIIKKQILKHLSRFTKNLSPDKINLSTLKGEGQLTNLELDEEVLQNVLELPTWLAITRVYCNRASIRIQWTKLKTHPICLCLDKVEVEMKTCEDPRPPNGQSPIALASGQSEYGFAEKVVEGMFIIVNSITIKIHSKAFHASFELWQLQGYSVNPNWQQSDLRLTRITDPCRGEVLTFKEITWQTLRIEADATDNGDQDPVTTPLRLITNQGRIQIALKRRTKDCNVISSKLMFLLDDLLWVLTDSQLKAMMKYAESLSEAMEKSAHQRKSLAPEPVQITPPAPSAQQSWAQAFGGSQGNSNSSSSRLSQYFEKFDVKESSYHLLISRLDLHICDDSQSREPGVSANRLMGGAMQLTFRKMAFDYYPFHWAGDSCKHWVRHCEAMETRGQWAQKLVMEFQSKMEKWHEETGLKPPWHLGVDSLFRRKADSLSSPRKNPLERSPSQGRQPAFQPPAWNRLRSSCMVVRVDDLDIHQVSTAGQPSKKPSTLLSCSRKLHNLPTQVSAIHIEFTEYYFPDNQELPVPCPNLYIQLNGLTFTMDPVSLLWGNLFCLDLYRSLEQFKAIYKLEDSSQKDEHLDIRLDAFWLKVSFPLEKRERAELHRPQALVFSASGMIATNTRHAPHCSCSDLQSLFRGFAAAEFFHSNYDHFPKVPGGFSLLHMLFLHHAFQMDSCLPQPNTLPPQRPKASWDLWSVHFTQISLDFEGTENFKGHTLNFVAPFPLSIWACLPLRWQQAQARKLLLASEGRLKPSASFGSPVQSEALAPDSMSHPRSKTEHDLKSLSGLTEVMEILKEGSSGMDNKGPLTELEDVADVHMLVHSPAHVRVRLDHYQYLALLRLKEVLQRLQEQLTKDTESMTGSPLQNQTACIGVLFPSAEVALLMHPAPGAVDADSAGSDSTSLVDSELSPSEDRELKSDASSDQGPASPEKVLEESSIENQDVSQERPHSNGELQDSGPLAQQLAGKGHEAVESLQAKKLSRTQASSSPAALKPPAGRETAVNGQGELIPLKNIEGELSSAIHMTKDATKEALHATMDLTKEAVSLTKDAFSLGRDRMTSTMHKMLSLPPAKEPMAKTDEGVAAPVSGGAARLRFFSMKRTVSQQSFDGVSLDSSGPEDRISVDSDGSDSFVMLLESESGPESVPPGSLSNVSDNAGVQGSPLVNNYGQGSPAANSSVSPSGEDLIFHPVSVLVLKVNEVSFGIEVRGEDLTVALQAEELTLQQLGTVGLWQFLHGQCPGTCFQESSTLKTGHIRPAVGLRFEVGPGAAVHSPLASQNGFLHLLLHGCDLELLTSVLSGLGPFLEDEEIPVVVPMQIELLNSSITLKDDIPPIYPTSPGPIPITLAMEHVVLKRSDDGVFHIGAAAQDKPSAEVLKSEKRQPPKEQVFLVPTGEVFEQQVKELPILQKELIETKQALANANQDKEKLLQEIRKYNPFFEL [UHRF1BP1] | -0.0773 | 54.1 | 53.5 | -0.154 | -1.63 | -1.87
4 | LDLR | -0.34 | 56.6 | 56.6 | -0.00467 | -1.81 | -1.47
5 | CBX1 | -0.629 | 51.2 | 52.8 | 0.55 | 2.04 | 1.13
6 | MPPSGPRGTLLLLPLLLLLLLRAVLAVPLERGAPNKEETPATESPDTGLYYHRYLQEVIDVLETDGHFREKLQAANAEDIKSGKLSRELDFVSHHVRTKLDELKRQEVSRLRMLLKAKMDAEQDPNVQVDHLNLLKQFEHLDPQNQHTFEARDLELLIQTATRDLAQYDAAHHEEFKRYEMLKEHERRRYLESLGEEQRKEAERKLEEQQRRHREHPKVNVPGSQAQLKEVWEELDGLDPNRFNPKTFFILHDINSDGVLDEQELEALFTKELEKVYDPKNEEDDMREMEEERLRMREHVMKNVDTNQDRLVTLEEFLASTQRKEFGDTGEGWETVEMHPAYTEEELRRFEEELAAREAELNAKAQRLSQETEALGRSQGRLEAQKRELQQAVLHMEQRKQQQQQQQGHKAPAAHPEGQLKFHPDTDDVPVPAPAGDQKEVDTSEKKLLERLPEVEVPQHL [NUCB1] | 0.717 | 54.5 | 54.7 | 0.0913 | -3.73 | -4.26
7 | MLSALARPASAALRRSFSTSAQNNAKVAVLGASGGIGQPLSLLLKNSPLVSRLTLYDIAHTPGVAADLSHIETKAAVKGYLGPEQLPDCLKGCDVVVIPAGVPRKPGMTRDDLFNTNATIVATLTAACAQHCPEAMICVIANPVNSTIPITAEVFKKHGVYNPNKIFGVTTLDIVRANTFVAELKGLDPARVNVPVIGGHAGKTIIPLISQCTPKVDFPQDQLTALTGRIQEAGTEVVKAKAGAGSATLSMAYAGARFVFSLVDAMNGKEGVVECSFVKSQETECTYFSTPLLLGKKGIEKNLGIGKVSSFEEKMISDAIPELKASIKKGEDFVKTLK [MDH2] | 0.383 | 56.9 | 57.2 | -0.0422 | -0.843 | -1.62
8 | MNHLNVLAKALYDNVAESPDELSFRKGDIMTVLEQDTQGLDGWWLCSLHGRQGIVPGNRLKILVGMYDKKPAGPGPGPPATPAQPQPGLHAPAPPASQYTPMLPNTYQPQPDSVYLVPTPSKAQQGLYQVPGPSPQFQSPPAKQTSTFSKQTPHHPFPSPATDLYQVPPGPGGPAQDIYQVPPSAGMGHDIYQVPPSMDTRSWEGTKPPAKVVVPTRVGQGYVYEAAQPEQDEYDIPRHLLAPGPQDIYDVPPVRGLLPSQYGQEVYDTPPMAVKGPNGRDPLLEVYDVPPSVEKGLPPSNHHAVYDVPPSVSKDVPDGPLLREETYDVPPAFAKAKPFDPARTPLVLAAPPPDSPPAEDVYDVPPPAPDLYDVPPGLRRPGPGTLYDVPRERVLPPEVADGGVVDSGVYAVPPPAEREAPAEGKRLSASSTGSTRSSQSASSLEVAGPGREPLELEVAVEALARLQQGVSATVAHLLDLAGSAGATGSWRSPSEPQEPLVQDLQAAVAAVQSAVHELLEFARSAVGNAAHTSDRALHAKLSRQLQKMEDVHQTLVAHGQALDAGRGGSGATLEDLDRLVACSRAVPEDAKQLASFLHGNASLLFRRTKATAPGPEGGGTLHPNPTDKTSSIQSRPLPSPPKFTSQDSPDGQYENSEGGWMEDYDYVHLQGKEEFEKTQKELLEKGSITRQGKSQLELQQLKQFERLEQEVSRPIDHDLANWTPAQPLAPGRTGGLGPSDRQLLLFYLEQCEANLTTLTNAVDAFFTAVATNQPPKIFVAHSKFVILSAHKLVFIGDTLSRQAKAADVRSQVTHYSNLLCDLLRGIVATTKAAALQYPSPSAAQDMVERVKELGHSTQQFRRVLGQLAAA [BCAR1] | 0.471 | 49.1 | 49.4 | 0.0584 | 0.46 | 2.67
